B1: 418_01_C05 (bispecific antibody)
chain: DIQLTQTPASLAVSLGQRATISCKASQSVDYDGDSYLNWYQQIPGQPPKLLIYDASNLVSGIPPRFSGSGSGTDFTLNIHPVEKVDAATYHCQQSTEDPWTFGGGTKLEIKGGSGGAMAEVQLVESGGGVVQPGRSLRLSCAASGFTFSSYGMHWVRQAPGKGLEWVSYINSRSSTIYYADSVKGRFTISRDNAKNSLYLQMNSLRDEDTAVYYCAKDKPLSGYAFDIWGQGTTVTVSSGGGGSGGGGSGGGASNFMLTQPHSVSESPGKTVTISCTRSSGSIASNFVQWYQQRPGRAPTIVIFDDDQRPSGVPDRFSGSIDRSSDSASLSISGLKTEDEADYYCQSYATRTQGVVFGGGTKVTVLGQPAAAGGGGSQVQLQQSGAELVRPGSSVKISCKASGYAFSSYWMNWVKQRPGQGLEWIGQIWPGDGDTNYNGKFKGKATLTADESSSTAYMQLSSLASEDSAVYFCARRETTTVGRYYYAMDYWGQGTSVTVSSASAAVECPPCPAPPVAGPSVFLFPPKPKDTLMISRTPEVTCVVVDVSHEDPEVQFNWYVDGVEVHNAKTKPREEQFNSTFRVVSVLTVVHQDWLNGKEYKCKVSNKGLPAPIEKTISKTKGQPREPQVYTLPPSREEMTKNQVSLTCLVKGFYPSDIAVEWESNGQPENNYKTTPPMLDSDGSFFLYSKLTVDKSRWQQGNVFSCSVMHEALHNHYTQKSLSLSPGK
B2: 418_03_E12 (bispecific antibody)
chain: DIQLTQTPASLAVSLGQRATISCKASQSVDYDGDSYLNWYQQIPGQPPKLLIYDASNLVSGIPPRFSGSGSGTDFTLNIHPVEKVDAATYHCQQSTEDPWTFGGGTKLEIKGGSGGAMAQVQLVESGGGVVQPGRSLRLSCAASGFTFSSYGMHWVRQAPGKGLEWVSSISSSSSYIYYADSVKGRFTISRDNAKNSLYLQMNSLRADDTAVYYCARRSFSSVFADYWGQGTLVTVSSGGGGSGGGGSGGGASNFMLTQPHSVSESPGKTVTISCTRSRGSIASNYVQWYQQRPGRAPTIVIFDDDQRPSGVPDRFSGSIDRSSDSASLRISGLKTEDEADYYCQSYATRSQSVVFGGGTKLTVLGQPAAAGGGGSQVQLQQSGAELVRPGSSVKISCKASGYAFSSYWMNWVKQRPGQGLEWIGQIWPGDGDTNYNGKFKGKATLTADESSSTAYMQLSSLASEDSAVYFCARRETTTVGRYYYAMDYWGQGTSVTVSSASAAVECPPCPAPPVAGPSVFLFPPKPKDTLMISRTPEVTCVVVDVSHEDPEVQFNWYVDGVEVHNAKTKPREEQFNSTFRVVSVLTVVHQDWLNGKEYKCKVSNKGLPAPIEKTISKTKGQPREPQVYTLPPSREEMTKNQVSLTCLVKGFYPSDIAVEWESNGQPENNYKTTPPMLDSDGSFFLYSKLTVDKSRWQQGNVFSCSVMHEALHNHYTQKSLSLSPGK
B3: 418_03_H01 (bispecific antibody)
chain: DIQLTQTPASLAVSLGQRATISCKASQSVDYDGDSYLNWYQQIPGQPPKLLIYDASNLVSGIPPRFSGSGSGTDFTLNIHPVEKVDAATYHCQQSTEDPWTFGGGTKLEIKGGSGGAMAQVQLQQWGAGLLKPSETLSLTCAVYGGSFSRYYWSWIRQSPGKGLEWIGEIKHRGRTNYNPSLKSRVTMSVDTSKNQFSLQLRSVTAADTAVYYCARVYSSGWFSYWGQGTLVTVSSGGGGSGGGGSGGGASNFMLTQPHSVSESPGKTVTISCTRSSGSIARNYVQWYQQRPGSAPTTVIYEDNQRPSGVPDRFSGSIDSSSNSASLTISGLKTEDEADYYCQSYDGSNWVFGGGTKVTVLGQPAAAGGGGSQVQLQQSGAELVRPGSSVKISCKASGYAFSSYWMNWVKQRPGQGLEWIGQIWPGDGDTNYNGKFKGKATLTADESSSTAYMQLSSLASEDSAVYFCARRETTTVGRYYYAMDYWGQGTSVTVSSASAAVECPPCPAPPVAGPSVFLFPPKPKDTLMISRTPEVTCVVVDVSHEDPEVQFNWYVDGVEVHNAKTKPREEQFNSTFRVVSVLTVVHQDWLNGKEYKCKVSNKGLPAPIEKTISKTKGQPREPQVYTLPPSREEMTKNQVSLTCLVKGFYPSDIAVEWESNGQPENNYKTTPPMLDSDGSFFLYSKLTVDKSRWQQGNVFSCSVMHEALHNHYTQKSLSLSPGK

Molecular target: human CD3 receptor complex (human, UniProt P07766 23-207; P09693 23-182; P04234 22-171)
Sequence (P07766 23-207, chain 1 of 3): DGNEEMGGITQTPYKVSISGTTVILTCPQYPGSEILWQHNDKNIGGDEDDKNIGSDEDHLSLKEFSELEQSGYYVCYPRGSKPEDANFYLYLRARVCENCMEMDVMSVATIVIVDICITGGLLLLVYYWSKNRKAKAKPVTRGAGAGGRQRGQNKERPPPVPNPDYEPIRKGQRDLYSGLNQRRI
Sequence (P09693 23-182, chain 2 of 3): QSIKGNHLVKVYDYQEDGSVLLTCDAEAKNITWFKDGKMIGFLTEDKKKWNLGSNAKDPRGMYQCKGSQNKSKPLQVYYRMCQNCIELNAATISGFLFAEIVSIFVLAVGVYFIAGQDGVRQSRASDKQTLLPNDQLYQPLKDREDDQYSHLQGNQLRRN
Sequence (P04234 22-171, chain 3 of 3): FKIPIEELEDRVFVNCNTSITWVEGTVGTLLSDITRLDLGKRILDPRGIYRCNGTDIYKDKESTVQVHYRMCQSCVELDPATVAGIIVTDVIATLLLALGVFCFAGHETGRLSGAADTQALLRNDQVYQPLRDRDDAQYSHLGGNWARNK
Experiment: cell-based or functional assay

Row | Binder | Activity (EC50 for activation of Jurkat line cells, pM)
1 | B1 | 1.5 pM
2 | B2 | 1 pM
3 | B3 | 4.3 pM

From patent US20230212288A1 (published 2023)
